Source: patent US20060140970A1, “Proteic binding partners of TCTP and methods of modulating tumor reversion or cell apoptosis” (priority 2003, published 2006)
Like-named read-outs stand apart in the source and are kept apart here.

What was measured:
[1] = target: T1, eEF1A (eEF1Bαγ-mediated GDP exchange) (Oryctolagus cuniculus, UniProt P68105); assay: eEF1Bαγ-mediated GDP exchange on eEF1A; type: biochemical, rabbit; conditions: TCTP at a final concentration of 2 μM
T1 construct: Rabbit liver eEF1A was purified as described in Shalak et al; from tissue; host or cells: rabbit liver (eEF1A only)
T1 sequence (P68105 2-462 limits assumed): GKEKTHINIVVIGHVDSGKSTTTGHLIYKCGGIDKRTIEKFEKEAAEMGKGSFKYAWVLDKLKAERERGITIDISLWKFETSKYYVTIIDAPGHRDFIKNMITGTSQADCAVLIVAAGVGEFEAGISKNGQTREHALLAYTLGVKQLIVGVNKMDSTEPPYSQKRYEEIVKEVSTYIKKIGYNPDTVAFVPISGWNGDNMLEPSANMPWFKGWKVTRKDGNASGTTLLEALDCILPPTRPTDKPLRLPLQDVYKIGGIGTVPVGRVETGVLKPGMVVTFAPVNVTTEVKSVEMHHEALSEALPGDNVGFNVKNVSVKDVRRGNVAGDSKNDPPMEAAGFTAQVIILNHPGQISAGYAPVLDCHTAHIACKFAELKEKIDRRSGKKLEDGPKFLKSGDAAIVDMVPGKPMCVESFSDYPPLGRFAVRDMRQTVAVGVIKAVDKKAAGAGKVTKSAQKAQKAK
Protocol: (§1) Guanine nucleotide exchange assay. Rabbit liver eEF1A was purified as described in Shalak et al., Ukr Biokhim Zh, 69: 104-9 (1997), incorporated herein by reference. The guanine nucleotide exchange on eEF1A was monitored as described in Negrutskii et al., J Biol Chem, 274: 4545-50 (1999) and Bec et al., J Biol Chem, 269: 2086-92 (1994), both of which are incorporated herein by reference. The eEF1A-[^3H]GDP complex was prepared following incubation of 4 μM eEF1A with 4 μM [^3H]GDP (Amersham Biosciences; 1500 Ci/mol) in 80 μl of 45 mM Tris-HCl (pH 7.5) containing 0.5 mM DTT, 10 mM magnesium acetate, 100 mM NH4Cl, 1 mg/ml bovine serum albumin and 25% glycerol for 5 minutes at 37° C. The reaction mixture was placed on ice and diluted by addition of 640 μl of ice-cold exchange buffer [20 mM Tris-HCl (pH 7.5), 10 mM magnesium acetate, 50 mM NH4Cl, 10% glycerol]. The exchange reaction was conducted at 0° C. after addition of 160 μl of exchange buffer containing nucleotide and specified exchange factors. Aliquots of 100 μl were taken at times indicated and immediately filtered through nitrocellulose filters (Millipore; pore size 0.45 μm). Filters were washed 3 times with 1 ml of ice-cold washing buffer [20 mM Tris-HCl (pH 7.5), 10 mM magnesium acetate, 100 mM NH4Cl, 0.1 mg/ml bovine serum albumin], dried and counted in a liquid scintillator. […]

[2] = target: Arf1-GAP / [D17]ARF1 (Homo sapiens, UniProt P84077); assay: GTP-GDP exchange activity of Arf1-GAP on [D17]ARF1, tryptophan fluorescence; type: biochemical; conditions: 30 uM TCTP, 0.5 uM [D17]ARF1-GDP, 100 uM Arf-GAP; presence vs absence of TCTP
Arf1-GAP / [D17]ARF1, sequence (P84077 18-181 limits assumed): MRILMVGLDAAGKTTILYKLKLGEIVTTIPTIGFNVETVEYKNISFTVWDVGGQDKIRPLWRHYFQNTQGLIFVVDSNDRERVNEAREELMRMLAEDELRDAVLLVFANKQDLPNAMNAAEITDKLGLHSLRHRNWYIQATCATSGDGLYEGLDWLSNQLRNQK
Protocol: Into a buffer containing 1 mM free Mg^2+, 30 uM TCTP and 0.5 uM [D17]ARF1 -GDP were added. The reaction was initiated by the addition of 40 uM GTP and 2 mM EDTA. To stop the reaction, 2 mM MgCl2 was added. The Arf-GAP, at a concentration of 100 uM, was added. The reaction was measured in presence and absence of TCTP. […] In particular, it is shown that TCTP inhibits the GTP-GDP exchange catalyzed by Arf1-GAP, implicating that Arf1 is kept in its active conformation in presence of TCTP.

[3] = target: T2, eEF1A (eEF1Bβ-mediated GDP exchange) (Oryctolagus cuniculus, UniProt P68105); assay: eEF1Bβ-mediated GDP exchange on eEF1A; type: biochemical, rabbit; conditions: TCTP at a final concentration of 2 μM; simple first-order
T2 construct: Rabbit liver eEF1A was purified as described in Shalak et al; Full-length TCTP, eEF1Bβ and NKTR cDNAs were cloned in-frame into pGEX-6P; GST (N, cleaved yes); made in house; host or cells: eEF1Bβ: E. coli BL21DE3; eEF1A: purified from rabbit liver
T2 sequence (P68105 2-462 limits assumed): T1 sequence (P68105 2-462 limits assumed)
Protocol: as §1

[4] = tested on: bovine brain tubulin; assay: In vitro tubulin polymerization assay (absorbance at 340 nm); type: biochemical; conditions: 3 μg purified protein, 2 mg/ml tubulin, 32° C.
Protocol: In vitro tubulin polymerization assays. Pure bovine brain tubulin protein was reconstituted at a final concentration of 10 mg/ml in cold G-PEM buffer (80 mM Piperazine-N,N′-bis-[2-ethanesulfonic acid] equisodium salt (PIPES), 0.5 mM magnesium chloride (MgCl2), 1 mM ethylene glycol-bis-(b-amino-ethyl ether)-N,N,N′,N′-tetra-acetic acid (EGTA), 1 mM Guanosine 5′-triphosphate (GTP), pH 6.9). Samples of 2 mg/ml tubulin in G-PEM buffer were incubated either with 3 μg of ovalbumin (negative control), with 3 μg of purified recombinant TCTP protein, or with […] of purified recombinant OP18 protein. Then, the samples were placed in quartz cuvettes and incubated at 32° C. Tubulin polymerization was observed by measuring the absorbance of the solution at 340 nm over time.
Since TCTP exerts tubulin and microtubules binding properties (Gachet et al., J. Cell Sci., 1 12(Pt 8): 1257-1271 (1999)), whether TCTP could directly regulate the microtubule dynamics was investigated. An in vitro tubulin polymerization assay, using purified tubulin, was developed. […] In the presence of 3 μg of purified OP18 from E. Coil, the polymerization of tubulin was abolished.

[5] = target: T3, eEF1A (Oryctolagus cuniculus, UniProt P68105); assay: Guanine nucleotide exchange assay on eEF1A (eEF1A-[3H]GDP dissociation); type: biochemical, rabbit
T3 construct: Rabbit liver eEF1A was purified as described in Shalak et al; from tissue; host or cells: rabbit liver
T3 sequence (P68105 1-462): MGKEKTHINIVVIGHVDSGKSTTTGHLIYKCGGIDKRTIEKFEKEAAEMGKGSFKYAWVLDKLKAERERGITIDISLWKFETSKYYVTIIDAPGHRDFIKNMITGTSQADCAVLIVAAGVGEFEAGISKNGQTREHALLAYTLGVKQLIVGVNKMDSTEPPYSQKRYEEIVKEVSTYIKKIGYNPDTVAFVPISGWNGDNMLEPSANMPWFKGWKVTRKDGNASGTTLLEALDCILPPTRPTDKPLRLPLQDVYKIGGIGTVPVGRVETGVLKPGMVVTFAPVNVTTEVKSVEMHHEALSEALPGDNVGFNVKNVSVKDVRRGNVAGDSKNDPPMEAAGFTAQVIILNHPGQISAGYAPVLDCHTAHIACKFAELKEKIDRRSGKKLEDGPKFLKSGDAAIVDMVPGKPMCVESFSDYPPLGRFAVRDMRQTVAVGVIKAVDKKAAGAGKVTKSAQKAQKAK
Protocol: Guanine nucleotide exchange assay. Rabbit liver eEF1A was purified as described in Shalak et al., Ukr Biokhim Zh, 69: 104-9 (1997), incorporated herein by reference. The guanine nucleotide exchange on eEF1A was monitored as described in Negrutskii et al., J Biol Chem, 274: 4545-50 (1999) and Bec et al., J Biol Chem, 269: 2086-92 (1994), both of which are incorporated herein by reference. The eEF1A-[^3H]GDP complex was prepared following incubation of 4 μM eEF1A with 4 μM [^3H]GDP (Amersham Biosciences; 1500 Ci/mol) in 80 μl of 45 mM Tris-HCl (pH 7.5) containing 0.5 mM DTT, 10 mM magnesium acetate, 100 mM NH4Cl, 1 mg/ml bovine serum albumin and 25% glycerol for 5 minutes at 37° C. The reaction mixture was placed on ice and diluted by addition of 640 μl of ice-cold exchange buffer [20 mM Tris-HCl (pH 7.5), 10 mM magnesium acetate, 50 mM NH4Cl, 10% glycerol]. The exchange reaction was conducted at 0° C. after addition of 160 μl of exchange buffer containing nucleotide and specified exchange factors. Aliquots of 100 μl were taken at times indicated and immediately filtered through nitrocellulose filters (Millipore; pore size 0.45 μm). Filters were washed 3 times with 1 ml of ice-cold washing buffer [20 mM Tris-HCl (pH 7.5), 10 mM magnesium acetate, 100 mM NH4Cl, 0.1 mg/ml bovine serum albumin], dried and counted in a liquid scintillator.
The functional relevance of a TCTP and eEF1A association was further investigated by monitoring the effects of TCTP on the rate of dissociation of GDP from the eEF1A-[^3H]-GDP complex. Whether TCTP preferentially binds to the GDP-bound form of the factor (and pushes the equilibrium toward the formation of eEF1A-GDP) or associates with the nucleotide free form of eEF1A (and displaces the exchange reaction toward the formation of eEF1A) was determined.
This corresponded to a rate of 0.082±0.004 pmol GDP exchanged/min/pmol of eEF1A. In the absence of free GDP in the incubation mixture, the eEF1A-[^3H]-GDP complex remained stable over a period of 40 minutes. Increasing amounts of TCTP (0.2 μM to 3.0 μM) were added in the exchange assay and the rate of dissociation of the eEF1A-[^3H]-GDP complex was monitored in the presence of 150 μM free GDP (FIG. 15A).

## TCTP: purified recombinant TCTP protein, bacterially expressed, GST moiety removed
[1]
  initial rate of GDP exchange in the presence of eEF1Bαγ: 0.96 min⁻¹
[2]
  GTP-GDP exchange catalyzed by Arf1-GAP: inhibits
[3]
  initial rate of GDP exchange in the presence of eEF1Bβ: 0.294 min^−1 per pmol of eEF1Bβ
[4]
  polymerization of purified tubulin: did not appear to affect the polymerization rate
[5]
  guanine nucleotide exchange activity: devoid of exchange activity
[5]; 3 μM TCTP, 150 μM free GDP
  rate of GDP dissociation: 0.026±0.003 pmol GDP exchanged/min/pmol of eEF1A
[5]; 150 μM free GDP, TCTP 0.2 μM to 3.0 μM, saturation kinetics, read-out: apparent dissociation constant Kd (inhibition of GDP exchange on eEF1A)
  Kd: 1.2 ± 0.2 µM
[5]; TCTP by itself
  binding of nucleotides by the protein itself: did not bind nucleotides
[5]; unlabeled free GTP (150 μM) in the exchange reaction, read-out: apparent Kd of TCTP for the GDP form of eEF1A
  Kd: 1.6 ± 0.3 µM
[5]; with TCTP, unlabeled free GTP (150 μM) instead of GDP
  rate of GDP dissociation: 0.024±0.003 pmol GDP exchanged/min/pmol of eEF1A
